# From patent US8865648B2, “Monomeric and dimeric forms of adiponectin receptor fragments and methods of use” (Siemens Healthcare Diagnostics Inc., priority 2009, dated 2014)
# Bridge positions count the residues as written; N and C are the ends. Ends that are not written are not given here. I, II: the chains in the order shown.
# B1: R1 CTF32 R2 CTF32: SEQ ID NO:1 linked via a disulfide bond to SEQ ID NO:2 (peptide)
# chain 1: VVAAAFVHFYGVSNLQEFRYGLEGGCTDDTLL
# chain 2: VVAGAFVHFHGVSNLQEFRFMIGGGCSEEDAL
# modifications: disulfide I:26-II:26 (inferred)
# B2: R2 CTF32 R2 CTF32: SEQ ID NO:2 linked via a disulfide bond to SEQ ID NO:2 (peptide)
# chain 1: B1 chain 2
# chain 2: B1 chain 2
# modifications: disulfide I:26-II:26 (inferred)
# B3: R1 CTF32 R1 CTF32: SEQ ID NO:1 linked via a disulfide bond to SEQ ID NO:1 (peptide)
# chain 1: B1 chain 1
# chain 2: B1 chain 1
# modifications: disulfide I:26-II:26 (inferred)
# What was measured:
# [1] = biological target: insulin degradation enzyme (IDE) (Homo sapiens, UniProt P14735); assay: Inhibition of enzymes: insulin degradation enzyme (IDE) inhibition; type: biochemical; settings: for IDE Inhibition (90% inhibition at): IDE at level of 400 ng/ml, peptide level giving 90% inhibition
# Method: (§1) Inhibition of insulin degradation enzyme (IDE) is a biological function of CTF. The inhibition reduces insulin degradation in the liver and other tissues and thereby increases insulin levels in the blood. The enzymes for cleavage of the dimers are also potential therapeutic targets. Each of the peptides synthesized in Example 1 was tested for their effect on cleavage and target enzymes (ADAM-17 and IDE at level of 400 ng/ml).
# ADAM-17 = ADAM-17 (Homo sapiens, UniProt P78536); assay: Inhibition of enzymes: ADAM-17 inhibition; type: biochemical; settings: ADAM-17 at level of 400 ng/ml
# ADAM-17, sequence (P78536 215-824): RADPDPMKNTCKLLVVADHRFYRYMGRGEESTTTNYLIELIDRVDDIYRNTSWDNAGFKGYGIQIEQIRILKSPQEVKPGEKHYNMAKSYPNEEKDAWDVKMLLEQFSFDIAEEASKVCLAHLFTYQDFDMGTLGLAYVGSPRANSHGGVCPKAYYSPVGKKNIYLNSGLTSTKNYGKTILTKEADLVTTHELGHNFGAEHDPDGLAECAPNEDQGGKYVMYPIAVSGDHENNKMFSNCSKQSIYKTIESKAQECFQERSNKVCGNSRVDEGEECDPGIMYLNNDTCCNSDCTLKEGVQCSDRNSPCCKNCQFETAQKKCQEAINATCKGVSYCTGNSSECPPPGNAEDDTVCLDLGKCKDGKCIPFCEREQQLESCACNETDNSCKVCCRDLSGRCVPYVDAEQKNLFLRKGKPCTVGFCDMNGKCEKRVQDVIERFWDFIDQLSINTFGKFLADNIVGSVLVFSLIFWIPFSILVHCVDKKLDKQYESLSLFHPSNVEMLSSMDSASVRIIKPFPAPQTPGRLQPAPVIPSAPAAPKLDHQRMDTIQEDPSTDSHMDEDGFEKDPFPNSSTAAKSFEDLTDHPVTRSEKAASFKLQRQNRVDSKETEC
# Method: as §1
# [2] = when administered to patients; cited from earlier work
Molecule,IDE Inhibition (90% inhibition at) [1],ADAM-17 Inhibition (observed) (ADAM-17),insulin-sensitizing effect [2],activity of heterodimer compared with corresponding homodimers ([1]; comparison drawn from the data in TABLE 2)
GGCSEEDAL [R2 CTF9],Negative,Negative,–,–
GGCTDDTLL [R1 CTF9],negative,Negative,–,–
HFHGVSNLQEFRFMIGGGCSEEDAL [R2 CTF25],–,Negative,–,–
HFYGVSNLQEFRYGLEGGCTDDTLL [R1 CTF25],–,Negative,–,–
HVLVVAAAFVHFYGVSNLQEFRYGLEGGCT [R1 CTF30],Negative,Negative,–,–
LQEFRYGLEGGCTDDTLL [R1 CTF17],negative,Negative,–,–
R1 CTF25 R2 CTF25: SEQ ID NO:5 linked via a disulfide bond to SEQ ID NO:6 (chain 1 HFYGVSNLQEFRYGLEGGCTDDTLL; chain 2 HFHGVSNLQEFRFMIGGGCSEEDAL; disulfide I:19-II:19 (inferred)),–,Negative,–,–
"VVAAAFVHFYGVSNLQEFRYGLEGGCTDDTLL [R1 CTF32, C-terminal fragment of ADIPOR1, 32 amino acids]",–,Positive,acted as an insulin-sensitizing agent,–
"VVAGAFVHFHGVSNLQEFRFMIGGGCSEEDAL [R2 CTF32, C-terminal fragment of ADIPOR2, 32 amino acids]",–,Positive,–,–
B1,–,Positive,–,more active than the corresponding homodimers
B2,–,Positive,–,–
B3,–,Positive,–,–
